For data set [1], the target named is Hfq (HfqEc) (Escherichia coli) (UniProt P0A6X3). The data set can be described thus: EMSA. Background: A gel shift assay detects complexes by their altered migration in electrophoresis.
Data set [2] has the same target. Kind of data set: SHAPE footprinting.
For data set [3], the system named is HfqCp (Clostridium perfringens). Kind of data set: EMSA. The settings on record: 50 mM Tris-HCl pH 7.5, 100 mM KCl, 10 mM MgCl2, room temperature; […].

Like-named read-outs stand apart in the source and are kept apart here.

Chain of Hfq (HfqEc) (Escherichia coli) (P0A6X3 whole entry): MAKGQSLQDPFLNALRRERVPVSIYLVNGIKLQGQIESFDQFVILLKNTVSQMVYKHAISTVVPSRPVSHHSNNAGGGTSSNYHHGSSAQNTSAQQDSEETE

For orientation: Kd means the free concentration of one partner at which half of the binding sites on the other are occupied at equilibrium, for simple one-to-one binding. Read a high Kd as lower affinity. With glmS mRNA -161 to +21, in data set [1], the Kd worked out at 30 nM. Same read-out and setting: with GlmY the figure was 4.3 nM. As for “GGCCUUCGGGCCAAUUCUGGCCGGCUAACCCGGUCACAUGGGAUGAGGAGAUAACAUAAUCUCCCUCCCACAAGCAGUAACUAUAAAAAUAACCCCACUCUCUACAAGGCUCGGGGCGCCCGAAAAAACGGGCAUACAGGUUGACCGACAACGAUAUAAAUCGGAAUCAAAAACUAUGUGUGGAAUUGUUGGCGCGUCGAUCCGGUUCGCCGGAUCCAAAUCGGGCUUCGGUCCGGUUCAAUAUUGGAUCCGCUCGG [glmS mRNA SHAPE construct]”, in data set [2], the binding result is reported as “binds”. As for “GGUUCUGGCCGGCUAACCCGGUCACAUGGGAUGAGGAGAUAACAUAAUCUCCCUCCCACAAGCAGUAACUAUAAAAAUAACCCCACUCUCUACAAGGCUCGGGGCGCCCGAAAAAACGGGCAUACAGGUUGACCGACAACGAUAUAAAUCGGAAUCAAAAACUAUGUGUGGAAUUGUUGGCGCGAAUAUUAAGCUUGCUCGG [glmS mRNA -161 to +21]”, the Kd in data set [1] was 30 nM. As to GlmZ, the Kd in data set [1] (50 mM Tris-HCl pH 7.5, 100 mM KCl, 10 mM MgCl2, room temperature, […]) worked out at 4.5 nM; in data set [3], 12 nM.

The values are drawn from publication PMC3439879.
